Source: article PMC1781754 (2000)

T1: IL-5 receptor alpha/beta (Homo sapiens, UniProt Q01344)
T1 chain 1: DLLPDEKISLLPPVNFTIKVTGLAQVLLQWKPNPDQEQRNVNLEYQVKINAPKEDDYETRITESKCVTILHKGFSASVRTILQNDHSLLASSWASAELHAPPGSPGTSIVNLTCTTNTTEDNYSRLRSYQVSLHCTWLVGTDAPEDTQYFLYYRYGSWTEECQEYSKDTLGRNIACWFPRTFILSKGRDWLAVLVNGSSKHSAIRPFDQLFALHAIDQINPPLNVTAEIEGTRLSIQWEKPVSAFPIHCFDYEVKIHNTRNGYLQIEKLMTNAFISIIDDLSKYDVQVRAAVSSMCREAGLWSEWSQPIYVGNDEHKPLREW
T1 chain 2: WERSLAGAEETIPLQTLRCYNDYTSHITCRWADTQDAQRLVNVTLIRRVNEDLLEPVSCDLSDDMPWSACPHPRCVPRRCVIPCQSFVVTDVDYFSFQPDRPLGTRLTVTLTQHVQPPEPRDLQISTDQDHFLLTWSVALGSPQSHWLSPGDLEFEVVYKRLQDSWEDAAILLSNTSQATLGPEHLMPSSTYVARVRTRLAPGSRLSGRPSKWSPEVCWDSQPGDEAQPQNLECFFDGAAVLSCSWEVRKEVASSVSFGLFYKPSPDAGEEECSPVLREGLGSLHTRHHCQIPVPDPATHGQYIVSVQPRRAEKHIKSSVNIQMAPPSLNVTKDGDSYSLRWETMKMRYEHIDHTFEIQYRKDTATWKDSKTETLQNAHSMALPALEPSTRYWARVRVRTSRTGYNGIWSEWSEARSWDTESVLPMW


Target: T1, IL-5 receptor alpha/beta
Test: radioligand displacement

| Ki | Binder |
| --- | --- |
| 0.75 nM | IL-5 (protein) IPKQSATLRALVRETLTLLSTHRTLLKGNETLRISVPAHKNHQLCIEEIFQGIDTLKNQTTQGEALATLFQNLSLIKKHIDLQKQKCGEERRRVKQFLDYLQEFLAVINTEWTIEG |
| 0.17 nM | IL-5 (protein) MEIPMSTVVKETLTQLSAHRALLTSNETMRLPVPTHKNHQLCIGEIFQGLDILKNQTVRGGTVEMLFQNLSLIKKYIDRQKEKCGEERRRTRQFLDYLQEFLGVMSTEWAMEG |
